# Results: patent US6914129 (dated 2005)
# T1: FceRII (CD23, FCEL) (human, UniProt P06734)
# T1 chain: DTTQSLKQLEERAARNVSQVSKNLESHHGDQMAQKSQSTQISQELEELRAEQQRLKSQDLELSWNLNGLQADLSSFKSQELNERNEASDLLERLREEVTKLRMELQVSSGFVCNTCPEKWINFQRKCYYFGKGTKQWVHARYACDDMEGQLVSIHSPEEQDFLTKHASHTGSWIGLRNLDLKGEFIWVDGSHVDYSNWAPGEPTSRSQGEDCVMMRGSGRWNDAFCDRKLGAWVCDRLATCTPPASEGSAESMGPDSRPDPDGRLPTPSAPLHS
# T2: FceRI alpha (FCEH) (human, UniProt P12319)
# T2 chain: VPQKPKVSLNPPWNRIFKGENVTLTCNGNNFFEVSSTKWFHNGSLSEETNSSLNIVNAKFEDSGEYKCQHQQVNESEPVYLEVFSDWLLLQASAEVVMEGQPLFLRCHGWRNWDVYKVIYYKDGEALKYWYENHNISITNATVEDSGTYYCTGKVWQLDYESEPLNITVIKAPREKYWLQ
# Columns and labels:
# FceRII (CD23, FCEL) = molecular target: T1, FceRII (CD23, FCEL); assay: FACS
# FceRI alpha (FCEH) = molecular target: T2, FceRI alpha (FCEH); assay: FACS
"binding result (FceRII (CD23, FCEL))",binding result (FceRI alpha (FCEH)),Binder
no binding,–,IgE mutant 3 (protein) ASTQSPSVFPLTRCCKNIPSNATSVTLGCLATGYFPEPVMVTWDTGSLNGTTMTLPATTLTLSGHYATISLLTVSGAWAKQMFTCRVAHTPSSTDWVDNKTFSVCSRDFTPPTVKILQSSCDGGGHFPPTIQLLCLVSGYTPGTINITWLEDGQVMDVDLSTASTTQEGELASTQSELTLSQKHWLSDRTYTCQVTYQGHTFEDSTKKCADSNPRGVSAYLSRPSPFDLFIRKSPTITCLVVDLAPSKGTVNLTWSRASGKPVNHSTRKEEKQRNGTLTVTSTLPVGTRDWIEGETYQCRVTHPHLPRALMRSTTKTSGPRAAPEVYAFATPEWPGSRDKRTLACLIQNFMPEDISVQWLHNEVQLPDARHSTTQPRKTKGSGFFVFSRLEVTRAEWEQKDEFICRAVHEAASPSQTVQRAVSVNPGLAGGSAQSQRAPDRVLCHSGQQQGLPRAAGGSVPHPRCHCGAGRADWPGPPELDVCVEEAEGEAPWTWTGLC
no binding,no binding,IgE mutant 1 (protein) ASTQSPSVFPLTRCCKNIPSNATSVTLGCLATGYFPEPVMVTWDTGSLNGTTMTLPATTLTLSGHYATISLLTVSGAWAKQMFTCRVAHTPSSTDWVDNKTFSVCSRDFTPPTVKILQSSCDGGGHFPPTIQLLCLVSGYTPGTINITWLEDGQVMDVDLSTASTTQEGELASTQSELTLSQKHWLSDRTYTCQVTYQGHTFEDSTKKCADSNPRGVSAYLSRPSPFDLFIRKSPTITCLVVDLAPSKGTVNLTWSRASGKPVNHSTRKEEKQRNGTLTVTSTLPVGTRDWIEGETYQCRVTHPHLPRALMRSTTKTSGPRAAPEVYAFATPEWPGSRDKRTLACLIQNFMPEDISVQWLHNEVQLPDARHSTTQPRKTKGSGFFVFSRLEVTRAEWEQKDEFICRAVHEAASPSQTVQRAVSVNPGLAGGSAQSQRAPDRVLCHSGQQQGLPRAAGGSVPHPRCHCGAGRADWPGPPELDVCVEEAEGEAPWTWTGLC
no binding,–,IgE mutant 50 (protein) ASTQSPSVFPLTRCCKNIPSNATSVTLGCLATGYFPEPVMVTWDTGSLNGTTMTLPATTLTLSGHYATISLLTVSGAWAKQMFTCRVAHTPSSTDWVDNKTFSVCSRDFTPPTVKILQSSCDGGGHFPPTIQLLCLVSGYTPGTINITWLEDGQVMDVDLSTASTTQEGELASTQSELTLSQKHWLSDRTYTCQVTYQGHTFEDSTKKCADSNPRGVSAYLSRPSPFDLFIRKSPTITCLVVDLAPSKGTVNLTWSRASGKPVNHSTRKEEKQRNGTLTVTSTLPVGTRDWIEGETYQCRVTHPHLPRALMRSTTKTSGPRAAPEVYAFATPEWPGSRDKRTLACLIQNFMPEDISVQWLHNEVQLPDARHSTTQPRKTKGSGFFVFSRLEVTRAEWEQKDEFICRAVHEAASPSQTVQRAVSVNPGLAGGSAQSQRAPDRVLCHSGQQQGLPRAAGGSVPHPRCHCGAGRADWPGPPELDVCVEEAEGEAPWTWTGLC
no binding,no binding,IgE mutant 4 (protein) ASTQSPSVFPLTRCCKNIPSNATSVTLGCLATGYFPEPVMVTWDTGSLNGTTMTLPATTLTLSGHYATISLLTVSGAWAKQMFTCRVAHTPSSTDWVDNKTFSVCSRDFTPPTVKILQSSCDGGGHFPPTIQLLCLVSGYTPGTINITWLEDGQVMDVDLSTASTTQEGELASTQSELTLSQKHWLSDRTYTCQVTYQGHTFEDSTKKCADSNPRGVSAYLSRPSPFDLFIRKSPTITCLVVDLAPSKGTVNLTWSRASGKPVNHSTRKEEKQRNGTLTVTSTLPVLHQDWLDGKEYQCRVTHPHLPRALMRSTTKTSGPRAAPEVYAFATPEWPGSRDKRTLACLIQNFMPEDISVQWLHNEVQLPDARHSTTQPRKTKGSGFFVFSRLEVTRAEWEQKDEFICRAVHEAASPSQTVQRAVSVNPGLAGGSAQSQRAPDRVLCHSGQQQGLPRAAGGSVPHPRCHCGAGRADWPGPPELDVCVEEAEGEAPWTWTGLC
no binding,–,IgE mutant 62 (protein) ASTQSPSVFPLTRCCKNIPSNATSVTLGCLATGYFPEPVMVTWDTGSLNGTTMTLPATTLTLSGHYATISLLTVSGAWAKQMFTCRVAHTPSSTDWVDNKTFSVCSRDFTPPTVKILQSSCDGGGHFPPTIQLLCLVSGYTPGTINITWLEDGQVMDVDLSTASTTQEGELASTQSELTLSQAHWLSDRTYTCQVTYQGHTFEDSTKKCADSNPRGVSAYLSRPSPFDLFIRKSPTITCLVVDLAPSKGTVNLTWSRASGKPVNHSTRKEEKQRNGTLTVTSTLPVGTRDWIEGETYQCRVTHPHLPRALMRSTTKTSGPRAAPEVYAFATPEWPGSRDKRTLACLIQNFMPEDISVQWLHNEVQLPDARHSTTQPRKTKGSGFFVFSRLEVTRAEWEQKDEFICRAVHEAASPSQTVQRAVSVNPGLAGGSAQSQRAPDRVLCHSGQQQGLPRAAGGSVPHPRCHCGAGRADWPGPPELDVCVEEAEGEAPWTWTGLC
